Laboratory results from paper PMC4654454 (ACS chemical biology, 2015).
Changes are numbered by the printed parent chain.

Assays:
hORC1 BAH F89S = biological target: T1, hORC1 BAH F89S (human, UniProt Q13415 45-171, F89S); experiment: EMSA
T1 sequence: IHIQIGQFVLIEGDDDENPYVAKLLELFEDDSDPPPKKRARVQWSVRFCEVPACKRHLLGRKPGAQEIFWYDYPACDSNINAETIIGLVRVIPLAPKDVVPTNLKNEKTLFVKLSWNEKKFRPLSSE

hORC1 BAH E127G = biological target: T2, hORC1 BAH E127G (human, UniProt Q13415 45-171, E127G); experiment: EMSA
T2 sequence: T1 sequence with S45F, E83G

B1: 14-bp DNA duplex (dsDNA)
DNA 1: GGAGGCCTCCTGCT
DNA 2: AGCAGGAGGCCTCC
hORC1 BAH F89S
  binding result: binds
hORC1 BAH E127G
  binding result: binds
